Reference: patent US20090169473A1, “DIAGNOSTIC AGENT AND THERAPEUTIC AGENT FOR DISEASE ASSOCIATED WITH HEPATOCYTE GROWTH FACTOR RECEPTOR” (FUJIFILM RI PHARMA CO., LTD., priority 2005, published 2009)

Key:
[1] = Heparin-binding activity by heparin affinity column HPLC; conditions: for NaCl concentration at elution from heparin column: TSK-gel Heparin-5PW, linear gradient 0 to 2M NaCl, pH 7.5, room temperature
Experimental: The heparin-binding activity of [^125I]HGF(11-83)-NH2 (73 aa) produced in Example 1 was determined with high-performance liquid chromatography employing a heparin column. hrHGF (PEPTIDE INSTITUTE, INC.), having a high heparin-binding activity, was used as a positive control.
<High-Performance Liquid Chromatography Conditions>
Column: TSK-gel Heparin-5PW (0.75×7.5 cm): product of TOHSO
solution A: 10 mM Na phosphate buffer (pH 7.5);
solution B: 10 mM Na phosphate buffer (pH 7.5)+2M NaCl;
0 min to 3 min: solution A 100%
3 min to 30 min: linear gradient solution B 0% to 100%
Temperature: room temperature (about 25° C.)

[2] = tested on: HGF receptor expression site (infarct border zone); test: Pinhole-SPECT imaging in myocardial ischemia model rats; type: in vivo, Wistar rats; conditions: 90 MBq left femoral vein
Experimental: Wistar rats (8-week-old) were anesthetized with isoflurane (Forane (R), Abbott). After tracheostomy, an artificial respirator connected to an anesthetizer was attached to each rat. The left chest was opened, and an electrogardiogram was measured before coronary ligation. The coronary artery and its peripheral tissue were ligated with suture. During ligation, nylon filament was placed as a spacer between the coronary artery and the suture in order to weaken the ligation strength so as not to completely intercept the blood flow. Ischemic state was determined on the basis of ST rise and recorded by an electrocardiogram. After recording, the left chest was closed, and the trachea and the skin were sutured.
Under inhalation anesthesia with isoflurane, ^99mTc-MIBI (90 MBq) was injected into the left femoral vein of each myocardial ischemia model rat. Subsequently, [^123I]HGF(11-83)-NH2 (73 aa) (100 MBq) prepared in a manner similar to that of Example 2 was administered through the right femoral vein. Thirty minutes after the administration, pinhole-SPECT imaging was conducted using a gamma camera (PRISM 2000, Shimadzu Corporation) (Imaging conditions: pinhole collimator, matrix sizes: 256×256, Mag 1.0, energy windows ^99mTc: 140 keV 10% and ^123I: 159 keV 10%, 3° 60 sec/step). […]

[3] = tested on: HGF receptor expression site (infarct border zone); test: Dual nuclide autoradiography in myocardial ischemia model rats; type: in vivo, CD(SD) IGS rats; conditions: 60 MBq femoral vein
Experimental: CD(SD) IGS rats (10-week-old) were anesthetized by intraperitoneally administering pentobarbital Na (35 mg/kg). After tracheostomy, an artificial respirator was attached to the rat. The left chest was opened, and an electrocardiogram was measured before coronary ligation. The coronary artery and its peripheral tissue (surrounding several millimeters) were ligated with suture, and ischemic state was determined on the basis of ST rise and recorded by an electrocardiogram. After recording, the chest was closed, and the trachea and the skin were sutured.
Three days after production of the myocardial ischemia model, a blood flow imaging agent ^99mTc-MIBI (Cardiolight Injection; DAIICHI RADIOISOTOPE LABS., LTD.) and [^125I]HGF(11-83)-NH2 (73 aa) were administered to each model rat. Blood flow was assessed through dual nuclide autoradiography and HE staining. ^99mTc-MIBI was administered at 60 MBq through a femoral vein. […] On the day of the experiment, the sample was affixed to an imaging plate for 30 minutes, and a ^99mTc-MIBI accumulation image was recorded by means of a bio-imaging analyzer BAS-1800 (FIG. 9). After 7-days attenuation period for ^99mTc for seven days, the sample was set again to the imaging plate for seven days, and a [^125I]HGF(11-83)-NH2 (73 aa) accumulation image was recorded by means of a bio-imaging analyzer BAS-1800 (FIG. 10).

[4] = target: T1, HGF receptor of HuCCT1 cells (Homo sapiens, UniProt P08581); test: Binding assay on HuCCT-1 cells with inhibition by hrHGF
T1 construct: c-Met-expressing HuCCT-1 cells (human-origin cholangiocarcinoma cells); endogenous in cells; host or cells: HuCCT-1 (human cholangiocarcinoma cells)
Experimental: Inhibition of binding of [^125I]HGF(11-83)-NH2 (73 aa) to c-Met-expressing HuCCT-1 cells (human-origin cholangiocarcinoma cells) by human recombinant HGF (hrHGF) was determined by the binding assay.
Specifically, a suspension of HuCCT-1 cells (100 μL, (1.5×10^5 cells)) prepared for a binding inhibition test was placed in an Eppendorf tube whose inner surface had been coated with bovine serum albumin (BSA), and a solution of hrHGF (PEPTIDE INSTITUTE, INC.) (50 μL, final concentration: 379 nM) was added to the tube. A negative control was prepared by adding a binding buffer (0.2% BSA, 20 mM HEPES Hanks' solution, pH 7.0) (50 μL) instead of the rhHGF solution. To the samples, 0.758 nM [^125I]HGF(11-83)-NH2 (73 aa) solution (50 μL) (final concentration: 0.190 nM, ratio by amount to hrHGF: 1:2,000) was added. Each Eppendorf tube containing HuCCT-1 cells was stirred and incubated at room temperature for one hour, followed by centrifuged at 4° C. (3,000 rpm, 3 min) to precipitate the cells. The supernatant was removed by means of an aspirator. The cells were stirred with an ice-cooled binding buffer (500 μL), and the mixture was centrifuged (3,000 rpm, 3 min). The procedure was repeated thrice. The radioactivity of the Eppendorf tube containing HuCCT-1 cells was measured by means of a gamma counter. The average and the standard deviation of the radioactivity (cpm) were calculated for the samples to which the hrHGF solution had been added (hrHGF(+)) and for the samples to which the binding buffer had been added (hrHGF(−)). The difference between the averages was assessed through the Student's t-test.

[5] = tested on: c-Met-expressed McA-RH7777 cells (rat-origin liver cancer cells) tumor; test: Accumulation in c-Met expressing tumor of implanted mice, autoradiography; type: in vivo, nude mice (BALB/c nu/nu); conditions: compared with anti-c-Met antibody (SP-260) immunohistochemical staining of serial sections
Experimental: c-Met-specific accumulation of [^125I]HGF(11-83)-NH2 (73 aa) in a tumor was observed by autoradiography and immunohistostaining in mice subcutaneously implanted c-Met expressing cancer cells.
3. Observation of c-Met-Specific Accumulation of [^125I]HGF(11-83)-NH2 (73 aa) in a Tumor of Mice Subcutaneously Implanted c-Met Expressing Cancer Cells by Autoradiography and Immunohistostaining
A suspension of c-Met-expressed McA-RH7777 cells (rat-origin liver cancer cells) (200 μL, 2.0×10^6 cells) was subcutaneously injected to a right hindlimb of 6-week-old nude mice (BALB/c nu/nu: Japan SLC, Inc.). On day 9 (tumor volume: […] (McA-RH7777 cells)), the aforementioned labeled HGF-fragment (370 kBq/100 μL) was intravenously administered to each mouse. The tumor was isolated with muscles surrounding the tumor 15 minutes after administration, and frozen sections were prepared. Each frozen section was affixed to an imaging plate (Fuji Photo Film Co., Ltd) for seven days, and a [^125I]HGF(11-83)-NH2 (73 aa) accumulation image was observed by means of a bio-imaging analyzer BAS-1800 (Fuji Photo Film Co., Ltd) (FIG. 5). […] Serial frozen sections were subjected to hematoxylin-eosin (HE) staining (FIG. 6) and immunohistochemical staining with anti-c-Met antibody (SP-260) (FIG. 7).

T1 sequence (P08581 25-307 limits assumed): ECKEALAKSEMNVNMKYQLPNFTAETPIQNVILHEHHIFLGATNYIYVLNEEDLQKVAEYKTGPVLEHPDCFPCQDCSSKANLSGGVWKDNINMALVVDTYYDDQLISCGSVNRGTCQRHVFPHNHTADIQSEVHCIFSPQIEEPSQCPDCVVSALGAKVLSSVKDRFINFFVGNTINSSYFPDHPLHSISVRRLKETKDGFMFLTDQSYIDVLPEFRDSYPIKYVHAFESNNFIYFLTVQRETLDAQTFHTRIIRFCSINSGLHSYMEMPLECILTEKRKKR
T1 sequence (P08581 308-1390 limits assumed): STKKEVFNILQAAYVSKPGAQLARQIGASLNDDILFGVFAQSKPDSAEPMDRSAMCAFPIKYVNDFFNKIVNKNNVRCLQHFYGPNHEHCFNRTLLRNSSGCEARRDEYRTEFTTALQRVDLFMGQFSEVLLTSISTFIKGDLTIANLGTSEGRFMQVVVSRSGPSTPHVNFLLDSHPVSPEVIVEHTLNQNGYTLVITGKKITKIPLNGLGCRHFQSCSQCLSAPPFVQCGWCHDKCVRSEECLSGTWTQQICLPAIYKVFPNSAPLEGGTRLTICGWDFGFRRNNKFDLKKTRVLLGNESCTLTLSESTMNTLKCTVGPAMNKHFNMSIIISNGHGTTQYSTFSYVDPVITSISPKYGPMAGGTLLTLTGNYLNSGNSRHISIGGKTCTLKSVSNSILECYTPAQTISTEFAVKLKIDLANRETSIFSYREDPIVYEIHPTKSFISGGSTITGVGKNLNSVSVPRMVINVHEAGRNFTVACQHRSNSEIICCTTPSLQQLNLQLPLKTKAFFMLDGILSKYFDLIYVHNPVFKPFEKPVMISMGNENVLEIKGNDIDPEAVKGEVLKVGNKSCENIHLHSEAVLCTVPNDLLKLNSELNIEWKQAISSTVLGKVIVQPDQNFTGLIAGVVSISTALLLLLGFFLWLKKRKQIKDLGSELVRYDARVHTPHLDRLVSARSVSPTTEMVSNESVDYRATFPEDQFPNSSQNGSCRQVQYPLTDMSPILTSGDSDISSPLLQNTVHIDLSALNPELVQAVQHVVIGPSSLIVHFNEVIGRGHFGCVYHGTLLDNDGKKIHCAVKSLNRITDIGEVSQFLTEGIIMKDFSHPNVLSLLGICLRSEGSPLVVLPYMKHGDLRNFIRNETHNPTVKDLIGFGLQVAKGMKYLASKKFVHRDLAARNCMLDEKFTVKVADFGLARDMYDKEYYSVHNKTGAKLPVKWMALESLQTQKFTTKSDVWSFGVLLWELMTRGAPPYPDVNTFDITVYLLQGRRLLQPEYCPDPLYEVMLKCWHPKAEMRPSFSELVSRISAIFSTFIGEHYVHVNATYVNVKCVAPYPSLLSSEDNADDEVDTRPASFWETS

Molecule | NaCl concentration at elution from heparin column [1] | Accumulation at the infarct border zone (pinhole-SPECT) [2] | Accumulation at the infarct border zone (autoradiography) [3] | Radioactivity bound to HuCCT1 cells, hrHGF(+) samples ([4]; 0.190 nM labeled peptide with 379 nM hrHGF, room temperature, one hour, mean±SD) | Radioactivity bound to HuCCT1 cells, hrHGF(−) samples ([4]; 0.190 nM labeled peptide, room temperature, one hour, mean±SD) | Reduction of binding to the cells by addition of hrHGF ([4]; hrHGF 379 nM, 2,000-fold mole concentration, P=0.040) | Specificity of accumulation in tumor [5] | Portion of the sample with strong heparin-binding activity ([1]; from the peak area ratios) | Area ratio of the heparin-binding peak ([1]; peak at 20.3 min, other peaks are free 125I and decomposed or denatured peptide)
hrHGF: human recombinant HGF (PEPTIDE INSTITUTE, INC.), positive control with high heparin-binding activity [reference compound] | about 1.5 M |  |  |  |  |  |  |  | 
[99Tc].[C-]#[N+]CC(C)(C)OC.[C-]#[N+]CC(C)(C)OC.[C-]#[N+]CC(C)(C)OC.[C-]#[N+]CC(C)(C)OC.[C-]#[N+]CC(C)(C)OC.[C-]#[N+]CC(C)(C)OC [^99mTc-MIBI] |  | reduced accumulation | reduced accumulation |  |  |  |  |  | 
[^125I]HGF(11-83)-NH2 (73 aa): labeled product prepared through directly introducing 125I into HGF(11-83)-NH2 (73 aa) (peptide) peptide: FKKSAKTTLIKIDPALKIKTKKVNTADQCANRCTRNKGLPFTCKAFVFDKARKQCLWFPFNSMSSGVKKEFGH | about 1.3 M |  |  | 20916.9±1574.2 cpm | 26136.2±2580.8 cpm | 20% | c-Met-specific | about 80% | 78.1%
